Data reported in patent US20210369812A1, “OSTEOINDUCTIVE PEPTIDES, COMPOSITIONS, IMPLANTS, AND METHODS OF USE” (The Board of Regents of the University of Oklahoma, priority 2018, published 2021).
Entries after “also recorded” stand apart in the source; their conditions may differ.

What was measured:
[1] = target: T1, BMPR1A (Homo sapiens, UniProt P36894); experiment: Biopanning of Ph.D.-12 phage library on immobilized BMPR1A-Fc; type: binding; conditions: peptide displayed on p3 of M13 phage; 3 rounds of panning
T1 construct: purchased G&P Biosciences
T1 sequence (P36894 24-152 limits assumed): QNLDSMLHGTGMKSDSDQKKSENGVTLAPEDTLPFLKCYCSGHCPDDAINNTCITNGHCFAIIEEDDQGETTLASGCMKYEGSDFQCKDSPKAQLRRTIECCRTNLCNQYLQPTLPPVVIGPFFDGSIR
Description: (§1) The Ph.D.™-12 phage library was diluted in tris-buffered saline mixed with Tween-20 (TBS+0.1% v/v Tween-20 and abbreviated TBST) for a final concentration of 2×10^11 phage in 1 mL of TBST. The diluted library was then pipetted onto one of the wells of a 12-well poly-L-lysine plate followed by rocking the plate gently for 60 minutes at room temperature. […] This supernatant served as the starting phage library for subsequent binding selections. The phages which stuck to the plate were discarded.
(§2) This procedure is only applicable if the charge of the desired protein to be immobilized is negative, determined by checking the pI value of the protein. […]. This procedure was written for 12-well plates coated in poly-L-lysine (positively charged). Separate solutions of BMPR1A-Fc and BMPR2-Fc were prepared at 80 μg/ml in Tris-buffered saline (pH 7.5). In separate wells and on separate poly-L-lysine coated 12-well plates, 0.3 ml of each solution of receptor was added. The solutions of BMPR1A-Fc and BMPR2-Fc were swirled around the plate surface until the entire surface was wet. The plates were then incubated overnight at 4° C. with gentle agitation in a humidified container (a sealed plastic box with damp paper towels). Each individual receptor was now immobilized.
(§3) The following selection procedure is based off of the direct coating procedure outlined in the Ph.D.™-12 Phage Display Libraries instructional manual (New England Biolabs) with some alterations. This procedure was carried out after immobilizing the targets BMPR1A-Fc and BMPR2-Fc in a 12-well poly-L-lysine coated plate. A stock solution of tetracycline was prepared (20 mg/ml in 1:1 ethanol:water). The coating solution containing the target receptors was poured off followed by firmly slapping the plates face down on a clean paper towel. Each well was then filled with blocking buffer (0.1 M NaHCO3 (pH 8.6), 5 mg/mL BSA, 0.02% NaN3. Filter sterilize, store at 4° C.) and incubated for 1 hour at 4° C. The blocking solution was then poured off followed by firmly slapping the plates down against a clean paper towel. Each plate was washed rapidly 6 times with Tris-buffered saline mixed with Tween-20 (TBS+0.1% v/v Tween-20). The plate was slapped against a clean paper towel each time. 1 ml of the phage library created from the negative selection process was then pipetted onto each of the target coated wells. The plates were then rocked gently at room temperature for 60 min. The non-binding phages were then discarded by pouring off the supernatant and slapping the plate face-down on a clean paper towel. The plate was then washed 10 times with TBST followed by slapping the plate face-down on a clean paper towel each time (a clean section of paper towel was used each time to prevent cross-contamination). The bound phages were then eluted by incubating with a nonspecific disruption buffer (0.2 M Glycine-HCl (pH 2.2), 1 mg/ml bovine serum albumin (BSA) for 15 minutes. The eluate (immersed in the disruption buffer) was then pipetted into a microcentrifuge tube followed by neutralization with 150 μl of 1 M Tris-HCl (pH 9.1). A small portion (˜1 μl) of this eluate could be titered and sequenced if desired. The rest of the eluate was amplified (see amplification of phage library section). Once amplified, the eluate was also titered. Determine the concentration of amplified phages by counting the blue plaques in titering as described. Dilute the amplified library to contain 2×10^11 phages in 1 mL of TBS (as little as 10^9 plaque forming units per ml can be used if there is not enough). A second poly-L-lysine 12-well plate was then coated with the target receptors to allow for a second round of biopanning carried out using the same steps except that the Tween-20 concentration in the wash steps was raised to 0.5% (v/v). The eluate from the second round was then amplified, titered and used in an additional 3rd round of panning on newly receptor coated plates. […]

[2] = target: T2, BMPR2 (Homo sapiens, UniProt Q13873); experiment: Biopanning of Ph.D.-12 phage library on immobilized BMPR2-Fc; type: binding; conditions: peptide displayed on p3 of M13 phage; 3 rounds of panning
T2 construct: purchased G&P Biosciences
T2 sequence (Q13873 27-150 limits assumed): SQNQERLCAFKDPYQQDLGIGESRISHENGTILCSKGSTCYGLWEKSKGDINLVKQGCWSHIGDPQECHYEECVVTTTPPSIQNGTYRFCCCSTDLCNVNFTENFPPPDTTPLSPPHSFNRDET
Description: as §1, §2, §3

[3] = system: rat radial bone defect model; experiment: Histological staining (HE, Von Kossa) of implanted scaffolds; type: in vivo; conditions: 4-week implants
Description: After 4 weeks and 12 weeks, animals (N=5) were euthanized by CO2 asphyxiation. The sections of the arms containing the implant (at the radius bone) were then cut way from the rest of the animal using bone cutters. The 4-week implant samples were fixed in 10% (w/v) neutral formalin solution for 4 days. The 12-week samples were fixed in 4% paraformaldehyde for 4 days. Paraformaldehyde was used as it can produce better CD31 vascularization stains relative to fixing with formalin. The samples were then placed in a solution of 70% ethanol to 30% water (v/v).
The tissue sections were deparaffinized and hydrated with distilled water. Hematoxylin was applied to the sample with enough volume to cover the tissue section followed by incubation for 5 min. The mounted tissue slide was then rinsed in 2 changes of distilled water (sections were allowed to soak for 15 sec on each exchange of water). Enough Bluing Reagent was then added to the tissue section to completely cover it followed by incubation for 10-15 sec. The slides were then rinsed again in 2 changes of distilled water allowing 15 sec of contact with the water each time. The slides were then dipped in 100% ethanol for 10 sec. The excess ethanol was blotted off. Enough Eosin Y Solution was then added to completely cover the tissue section followed by incubation for 2-3 min. The slides were then rinsed in 100% ethanol for 10 sec. […]

Sequence | Binding to BMPR1A found by biopanning (frequency among sequenced plaques) [1] | Binding to BMPR2 found by biopanning (frequency among sequenced plaques) [2] | New bone tissue / calcium deposits (Von Kossa stain) [3]
SGTQDSMVGWNK (Completely synthesized in the lab - Ph.D.-12 Phage Display Peptide Library Kit (New England Biolabs)) | showed up as a result of biopanning on both BMPR1A alone and BMPR2 alone; also recorded: discovered to bind | showed up as a result of biopanning on both BMPR1A alone and BMPR2 alone; also recorded: discovered to bind | –
VHVPLHRGAVSA (Completely synthesized in the lab - Ph.D.-12 Phage Display Peptide Library Kit (New England Biolabs)) | discovered to bind | discovered to bind | New bone tissue was observed to be best
